Experimental data reported in article PMC4564277, “Biochemical and Structural Insights into the Mechanism of DNA Recognition by Arabidopsis [sequence] INSENSITIVE3” (PLoS ONE, 2015).
Changes are numbered by the printed parent chain.

How the values were obtained:
[1] = biological target: T1, EIN3 82-352 P216S (Arabidopsis thaliana, UniProt O24606 82-352, P216S); assay: EMSA; EMSA: 1 nM biotin probe, 10 mM Tris-HCl pH 7.5, 40 mM KCl, 3 mM MgCl2, 1 mM EDTA, 10% glycerol, 1 mM DTT, 1 ug poly(dI-dC) in 20 uL, room temperature, 30 min; conditions: protein: recombinant; tags: N-terminal His6 (pET-28a); chain copies: 2; label: 3' biotin on forward strand; blunt
T1 sequence: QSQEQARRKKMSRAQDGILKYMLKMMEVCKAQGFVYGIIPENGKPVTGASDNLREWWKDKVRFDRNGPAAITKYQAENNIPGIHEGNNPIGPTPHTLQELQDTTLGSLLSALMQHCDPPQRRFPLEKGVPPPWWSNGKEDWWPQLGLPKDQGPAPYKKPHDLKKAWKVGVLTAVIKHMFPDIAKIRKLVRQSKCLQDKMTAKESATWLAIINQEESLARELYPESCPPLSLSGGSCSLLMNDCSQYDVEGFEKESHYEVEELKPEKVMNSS

[2] = biological target: T2, EIN3 91-352 (Arabidopsis thaliana, UniProt O24606 91-352); assay: as above; conditions: protein: recombinant; tags: N-terminal His6 (pET-28a); chain copies: 2; label: 3' biotin on forward strand; blunt
T2 sequence: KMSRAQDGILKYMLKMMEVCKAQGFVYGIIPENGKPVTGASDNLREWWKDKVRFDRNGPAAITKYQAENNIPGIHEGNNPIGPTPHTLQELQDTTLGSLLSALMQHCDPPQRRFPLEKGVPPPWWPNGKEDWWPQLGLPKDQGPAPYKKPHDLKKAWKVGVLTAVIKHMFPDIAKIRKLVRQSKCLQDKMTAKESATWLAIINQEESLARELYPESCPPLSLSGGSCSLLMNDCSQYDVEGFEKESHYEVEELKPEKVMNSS

[3] = biological target: T3, EIN3 82-352 (optimal DBD) (Arabidopsis thaliana, UniProt O24606 82-352); assay: as above; conditions: protein: recombinant, tags: N-terminal His6 (pET-28a), chain copies: 2
T3 sequence: T1 sequence with S135P

[4] = biological target: T4, EIN3 68-352 (Arabidopsis thaliana, UniProt O24606 68-352); assay: as above; conditions: protein: recombinant; tags: N-terminal His6 (pET-28a); chain copies: 2; label: 3' biotin on forward strand; blunt
T4 sequence: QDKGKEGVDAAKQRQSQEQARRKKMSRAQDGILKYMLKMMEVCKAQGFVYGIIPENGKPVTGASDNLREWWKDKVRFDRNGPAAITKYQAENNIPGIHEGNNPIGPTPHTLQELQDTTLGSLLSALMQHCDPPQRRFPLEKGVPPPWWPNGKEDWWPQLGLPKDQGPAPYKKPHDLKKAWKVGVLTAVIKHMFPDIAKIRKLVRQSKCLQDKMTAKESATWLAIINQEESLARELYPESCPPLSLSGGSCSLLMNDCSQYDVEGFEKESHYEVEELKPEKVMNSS

[5] = biological target: T5, EIN3 98-352 (Arabidopsis thaliana, UniProt O24606 98-352); assay: as above; conditions: protein: recombinant; tags: N-terminal His6 (pET-28a); chain copies: 2; label: 3' biotin on forward strand; blunt
T5 sequence: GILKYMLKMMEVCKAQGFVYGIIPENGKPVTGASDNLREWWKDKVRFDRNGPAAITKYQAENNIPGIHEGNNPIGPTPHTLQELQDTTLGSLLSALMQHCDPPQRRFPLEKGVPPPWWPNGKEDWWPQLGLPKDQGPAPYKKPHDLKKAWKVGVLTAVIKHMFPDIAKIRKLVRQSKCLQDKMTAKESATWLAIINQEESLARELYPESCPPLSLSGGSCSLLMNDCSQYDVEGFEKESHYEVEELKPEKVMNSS

[6] = biological target: T6, EIN3 1-352 (Arabidopsis thaliana, UniProt O24606 1-352); assay: as above; conditions: protein: recombinant; tags: N-terminal His6 (pET-28a); chain copies: 2; label: 3' biotin on forward strand; blunt
T6 sequence: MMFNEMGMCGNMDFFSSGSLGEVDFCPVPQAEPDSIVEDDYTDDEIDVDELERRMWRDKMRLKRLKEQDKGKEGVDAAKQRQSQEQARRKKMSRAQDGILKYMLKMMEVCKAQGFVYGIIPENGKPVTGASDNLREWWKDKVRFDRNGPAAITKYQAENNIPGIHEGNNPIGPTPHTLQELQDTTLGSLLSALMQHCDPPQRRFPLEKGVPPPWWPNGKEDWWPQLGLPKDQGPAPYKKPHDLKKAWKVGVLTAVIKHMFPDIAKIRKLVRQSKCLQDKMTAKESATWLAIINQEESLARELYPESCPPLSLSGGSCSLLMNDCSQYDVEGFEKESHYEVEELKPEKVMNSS

[7] = biological target: T3, EIN3 82-352 (optimal DBD); assay: EMSA; tighter than ERF1; EMSA: 1 nM biotin probe, 10 mM Tris-HCl pH 7.5, 40 mM KCl, 3 mM MgCl2, 1 mM EDTA, 10% glycerol, 1 mM DTT, 1 ug poly(dI-dC) in 20 uL, room temperature, 30 min; conditions: protein: recombinant; tags: N-terminal His6 (pET-28a); chain copies: 2; label: 3' biotin on forward strand; blunt
[8] = biological target: the molecule itself; assay: SEC-MALS; Superdex 200 analytical column, 1 ml/min, 10 mM Tris–HCl pH 7.5, 100 mM NaCl, 1 mM DTT, 4°C; no DNA
[9] = biological target: T3, EIN3 82-352 (optimal DBD); assay: EMSA; EMSA: 1 nM biotin probe, 10 mM Tris-HCl pH 7.5, 40 mM KCl, 3 mM MgCl2, 1 mM EDTA, 10% glycerol, 1 mM DTT, 1 ug poly(dI-dC) in 20 uL, room temperature, 30 min; conditions: protein: recombinant; tags: N-terminal His6 (pET-28a); chain copies: 2; label: 3' biotin on forward strand; blunt
[10] = label: 3' biotin on forward strand, blunt

B1: ERF1 (dsDNA)
DNA 1: GTTGTTTGGGATTCAAGGGGCATGTATCTTGAATCC
DNA 2: GGATTCAAGATACATGCCCCTTGAATCCCAAACAAC
B1: binds [1]; binds [2]; binds [3, 10]. B1: binds [4]; binds [5]; binds [6].

B2: 2EBS-S10-36 (dsDNA)
DNA 1: TGAAGATACATGCAATTAAGCATGTATCTTGAATCC
DNA 2: GGATTCAAGATACATGCTTAATTGCATGTATCTTCA
B2: binds [7].

AAGATACATGCAAAAAAGCATGTATCTT (ssDNA) [2EBS-S10-F]: no binding ([3]; label: 3' biotin, single strand).

B3: 2EBS-S10-R (dsDNA)
DNA 1: AAGATGTATGCAAAAAAGCATACATCTT
DNA 2: AAGATGTATGCTTTTTTGCATACATCTT
B3 was tested, and the Kd [3, 10] was about 1240 nM.

B4: EIN3 82–352 (optimal DNA-binding domain of Arabidopsis ETHYLENE …3) (domain or fragment, UniProt O24606 82-352, looked up)
chain: T1 sequence with S135P
notes: numbering based on UniProt O24606; Cloned into NheI/BamHI of pET-28a; Printed predicted Mw: monomer 31.29 kDa, dimer 62.58 kDa; also called optimal DBD; EIN3 truncation 82–352; source: E. coli Transetta (DE3), purified (Ni-NTA, Superdex 75 size exclusion)
With B4 the “stoichiometry N” value [8] was 2.

B5: 2EBS-S8 (dsDNA)
DNA 1: AAGATACATGCAAAAGCATGTATCTT
DNA 2: AAGATACATGCTTTTGCATGTATCTT
In the case of B5, the binding signal [9] is reported as ~3 fold higher Kd than 2EBS-S10.

B6: 2EBS-S10 (dsDNA)
DNA 1: AAGATACATGCAAAAAAGCATGTATCTT
DNA 2: AAGATACATGCTTTTTTGCATGTATCTT
B6 showed a Kd [3, 10] of about 110 nM.

B7: 1EBS-S10 (dsDNA)
DNA 1: AAGATACATGCAAAAAAGCGATCGACTT
DNA 2: AAGTCGATCGCTTTTTTGCATGTATCTT
B7 was tested, and the Kd [3, 10] was about 690 nM.

B8: 2EBS-S10-2 (dsDNA)
DNA 1: AAGGTACATGCAAAAAAGCATGTACCTT
DNA 2: AAGGTACATGCTTTTTTGCATGTACCTT
B8: binds [3, 10].

B9: 0EBS-S10 (dsDNA)
DNA 1: AAGTCGATCGCAAAAAAGCGATCGACTT
DNA 2: AAGTCGATCGCTTTTTTGCGATCGACTT
Binder B9 has a Kd [3, 10] of about 2280 nM.

B10: 2EBS-S5 (dsDNA)
DNA 1: AAGATACATGCAGCATGTATCTT
DNA 2: AAGATACATGCTGCATGTATCTT
In the case of B10, the binding signal [9] is reported as ~15 fold higher Kd than 2EBS-S10.
